Data taken from the DeepSol protein solubility set.

Experiment: soluble on expression in E. coli; label from the status in PepcDB or PDB records

Soluble on expression in E. coli, soluble:
PTNIHKIHEVQKKLQEEVSIVLIDIADIIVNPKKENGYSRDLYTLNSLIDSSISETYDNINNTLLSDTRFFLEHMDIIKSQRDILENLYSYVSQLNSTPPQAHILSAFIHKIGYTEFEAETGNLLLEELKRLMISMKNQPLPVDRTEFENRAILFLCLTELKQFLVNRKHAQML
MSYNYLKAARKIICIGRNYAAHIKELNNSTPKQPFFFLKPTSSIVTPLSSSLVKTTRPANSTFNGLNEDGTNPGPIFIPRGVKVHHEIELALIVSKHLSNVTKMKPEEVYDSISGVALALDLTARNVQDEAKKKGLPWTISKGFDTFMPISAIVSREKFSSYKSNLQDIFRVKCSVNGQLRQDGGTNLMLHPLHKILQHISTMISLEPGDIILTGTPAGVGELKPGDRVHCELLQNNDNIVDMNFECENRPGPYEFRET
MALHDENVVWHSHPVTVQQRELHHGHRGVVLWFTGLSGSGKSTVAGALEEALHKLGVSTYLLDGDNVRHGLCSDLGFSDADRKENIRRVGEVANLMVEAGLVVLTAFISPHRAERQMVRERVGEGRFIEVFVDTPLAICEARDPKGLYKKARAGELRNFTGIDSVYEAPESAEIHLNGEQLVTNLVQQLLDLLRQNDIIRS

Soluble on expression in E. coli, not soluble:
MNRKPRTRSTIVPGRKMITEIVALREAGLDDTRPSYLEEPTVIVDESMMNDSANLEEREWRKQGLSEKQMFAILEKRKQTQLNNARKRLEKEMYGAKTFKELIACREYSECESDSENTVNQNVRSASVFAIPALPKHISEKSMMGSPIANSRGSGKAGLSCSTPKSSSDTSMRSLRSLDISHVVNTDRLDAERVTVHTKSVVIPTILEERESTLQKTLTIEKNHSSQLQKTFTVAEDAPEELQKTVTIEKNQSSEMQRTFTVAKDASKEQSQLQRTVTIEKNQSSQLQGNFTVAKDAPEELQKTVTIEKNQSSEMQGTVTVAKDAEHSSLQKTFTKPTEKDESSLQRTFNVANRDENNDSTLQKTFIIEERDAYEQGTTSVGVKPPVLAQNTMEGGEKRRTSKVTSDERERRNASISNPLHNSMLEKEEIQSPGANFFKHPRKKIRPVVQTPPRIKATSRLSTESNKERTIEMESVAEERTMEADSIGSSYISPTFNASRVSPVPEVPEKVEPMHVSKAATPKSIRHTDNSIRNIGPTNNVECARAALLSTPTRMDIVDSVNRVTPARRYEQPTFASLVKRMNMKDANRLLEETSRKNTPAKTTATTSSAAVRMVLEDDEEDQATEVIEKRSENGGVIVDGEDEAADSSNRSLNIELNALTVNEEPAHDISAIDFPEDDTNEMRSSSDEEEMEARPDPRKKSSRRLGLLSDSIALGLASSSRRRPNDTFVDETWYPEPNSKGNRRPRTHRGMKLKEHQLMKPEDAPDGVRRSTRVRVKPVRSWLGEQPVYVNSPISGCKRLTGVTAVVIKDPRLCYYRTADVRTATERELKDKANKRALAQEKKQQRQNARSGRRHDSDDDEEDDM
MGSDKIHHHHHHMKLSPTAQPFLHLHNLFILHQKVLVVKPMKELFPGLKRFRAYLNTAGLGLMPLTVYQKVNEFLLDVINYEDGINAVEILDELYFNPMLKKAAKLMKTNPENITVSLQTTDGLKRILTSLTPKKGMKIVSFDLEFPTISAILKSYAKRHGLEVKVIGNKGGLYYMEDVERVIDDNTFAVVFSDVQWITGQRMPTKEIAGVAHEHGAWVIVDAVQSLGALEVYPEKMEVDALVAGGEKWLLNPNTGSGVMWISEELIEVSEPILGLLNTQPEVPWSEWWGDERKDVWDILPVRKDARKLDPGTPPYVSIVALDASLELINSVGIEKIEKHDMKLAKRVREYAYELGVTALGSSQITLLRLGVDYVKQREIVKNLEEKGIVVSLRGAKGIFGIRVSPHLYNTEDDIVTLFDELSKFF
MDMQVVPKIGISSVVHSKHIDPGSIDVVGNDIALFDTESVISLYNGPSKLEVVSIGLCLEGSTRFNISLREFELIPGRMVIALPNQIIEHRQFSSNFRGIFFAVSKSLLESLPKVGNVLSFFFFLKDYPCFDLNLHEQEMIKEYHAFIRKRLKNKDDRYRREVVMGLMQGFFFELCNIFNSYAPDASAVVKSKSRKEYIFERFYESLVQSYQSERSVKFYADQLCLTPKHLSGVVKEVSGKTVGEWIDELVILEAKALLNSSSMNIQEIADRLNFANQSFFGKYFKHYTGMSPKEYRKSR
LWALGNDSVTAKSLTISNFTLTERKTRYELCFLLDAKNSNTVNEPLSELKNCYGKDVSNVFRTITADNGSEFSRLSEMLQGLGIEAYFTHPYSSWERGTNERHNGLIRRFIPKGKAIKDFSEETIKRIQQWLNSLPRRILGYKTPEECFNEEIHNLVNKNISAIA
